Data as given in the supplement of paper PMC10567573.

B1: RSPH3 (parent)
chain: KAASLARNLAKRRRTYLGGAAGRS
B2: SLC22A15 (parent)
chain: IAQYALLGYFIRSWRTLAILVNLQ

Variants of: B1
Assay: protein stability index of a GFP-peptide fusion (GPS, HEK-293T) (PSI 1-6); higher = more stable
Details: c terminus: a fixed tail appended
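Also: lentivirally expressed fusions sorted by FACS into six bins by GFP to DsRed ratio, PSI derived from sequencing read proportions per bin multiplied by bin number.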

Variant	protein stability index
A20V	2.6
A20H	2.59
A20E	2.45
A20M	2.42
A20S	1.72
A20D	3.98
A6Y	1.94
A6C	1.06
A6R	2.56
A6G	3.27
R7V	1.98
R7L	2.51
R7N	3.59
R7E	4.36
R7D	3.83
G18S	1.69
G18M	2.5
G18F	1.78
G18H	3.07
G18E	2.45
G18T	1.97
G18I	2.86
K1T	2.98
A3Y	1.74

Variant	protein stability index
A3G	3.72
A3K	2.68
A3D	3.02
A3N	2.69
A3F	1.01
R14Q	2.57
R14L	1.84
L5A	4.18
L5F	2.56
L5M	2.33
L5V	4.21
G22Y	2
G22F	2.17
G22W	1.44
G22H	1.44
R12Y	1.18
R12C	2.46
R12H	2.41
R12K	2.9
K11G	2.49
K11I	2.78
K11W	1.71
K11P	2.89
K11Q	1.98

Variant	protein stability index
K11N	2.36
K11F	1.92
K11T	1.56
A10V	2.43
A10S	2.91
A10D	3.14
A10G	4.07
N8Q	1.35
N8K	2.52
G19T	2.38
G19N	2.68
G19C	1.97
G19H	2.59
G19I	1.87
S4D	3.47
S4E	1.99
S4G	3.32
S4I	1.83
S4V	2.36
S4A	1.89
S4N	3.2
Y16L	2.29
Y16A	3.41
Y16P	3.04

Variant	protein stability index
Y16M	2.26
Y16Q	2.81
Y16F	3.2
A2G	3
A2N	3.47
A2S	3.04
A2I	1.71
A2Q	3.13
A2E	3.41
R13D	3.58
R13T	2.4
R13S	2.52
R13V	1.92
R13N	3.36
T15M	3.14
T15Y	1.29
A21D	2.69
A21K	3.2
L9P	3.94
L9N	4.46
L9R	4.9
L9A	3.41
L9F	2.44
L9E	4.34

Variant	protein stability index
L9W	2.38
R23C	1.99
R23G	1.85
R23V	2.15
R23D	2.61
R23H	2.37
R23F	1.63
R23I	1.59
S24N	1.85
S24P	1.83
S24I	3.4
S24D	3.31
S24L	2.04
S24Q	3.37
S24A	2.7
S24M	2.2
L17E	2.32
L17W	1.69
L17H	3.26
L17F	2.05
L17G	2.66

Variants of: B2
Assay: as above
Details: c terminus: a fixed tail appended

Variant	protein stability index
A5S	2.48
A5E	1.82
A5I	2.52
A5R	2.33
A5K	2.1
A5G	3.8
Y9I	2.71
Y9K	1.29
Y9E	2.03
Y9A	1.47
Y9G	3.34
Y9C	2.75
Y9D	2.57
Y9W	2.92
Y9Q	4.48
Y9N	2.22
A2I	3.22
A2K	2.18
A2V	2.88
A2E	2.65
A2S	2.1
A2M	3.88
A2R	3.65
A2P	4.19
A2F	1.95

Variant	protein stability index
A2H	2.48
A2G	2.41
A2T	3.18
A2N	4.69
L17E	3.59
L17R	1.98
L17I	2.52
L17M	2.57
L17D	2.83
L17K	2.4
L17P	2.05
L17H	3.02
L17G	3.63
L17Q	2.85
L17A	3.45
L17F	2.3
L7I	1.71
L7M	2.97
L7C	3.99
L7S	3.26
L7Y	2.5
L7Q	2.52
L7D	2.67
L7N	3.3
L7W	2.78

Variant	protein stability index
L6G	4.36
L6K	2.31
L6E	2.55
L6I	3.23
L6F	2.34
L6Q	2.46
L6P	2.95
L6T	4.1
L6R	4.15
L6H	1.67
L6N	2.26
L6M	3.42
L6S	2.22
L6Y	2.49
R15M	2.18
R15E	1.81
R15F	3.18
R15G	4.28
R15D	4.08
R15Q	2.52
R15S	2
R15C	2.86
R15Y	2.65
R15W	3.4
R15I	3.23

Variant	protein stability index
R15K	3.15
R15H	2.65
R15L	2.95
R15N	3.78
R15A	2.1
R15T	4.03
R15V	2.88
W14E	1.91
W14H	4.19
W14P	3.8
W14N	3.47
W14F	2.86
W14R	2.52
W14L	3.89
W14M	2.62
W14Y	3.53
W14G	3.14
W14D	2.61
W14I	3.04
W14C	4
W14T	2.6
W14K	1.79
W14V	2.46
W14Q	3.34
I11A	2.96

Variant	protein stability index
I11Q	2.14
I11C	2.6
I11F	3.45
I11T	3.02
I11K	3.38
I11M	2.89
I11H	2.63
I11S	2.68
I11E	1.63
I11L	2.34
I11R	2.37
I11N	2.32
I11V	2.88
I11D	3.1
I11P	2.1
I11Y	2.72
G8F	2.71
G8S	3.52
G8P	1.82
G8V	2.97
G8M	3.1
G8E	1.83
G8L	1.88
G8Y	1.76
G8K	1.71

Variant	protein stability index
G8C	2.42
G8N	1.67
G8Q	3.07
G8H	2.21
G8I	3.12
I1P	1.52
I1V	2.17
I1D	2.92
I1N	4.39
T16V	3.34
T16N	2.63
T16G	2.8
T16L	2.43
T16A	3.28
T16K	1.98
T16Y	3.88
T16R	3.13
T16S	3.05
T16Q	3.17
T16E	2.07
T16H	3.46
T16C	4.17
T16M	3.23
T16D	1.58
T16I	4.01

Variant	protein stability index
T16P	5.02
Y4Q	2.44
Y4N	4.26
Y4C	3.29
Y4E	3.39
Y4P	4.01
Y4A	3
Y4W	2.78
Y4I	1.57
Y4F	3.81
Q3C	3.46
Q3L	3.15
Q3K	1.96
Q3R	4.63
Q3V	4.91
Q3G	3.38
Q3D	2.29
Q3A	3.14
Q3H	2.13
R12N	2.27
R12Y	3.46
R12S	3.61
R12C	2.67
R12L	2.94
R12T	1.97

Variant	protein stability index
R12D	1.86
R12M	2.98
R12V	2.34
R12P	2.67
R12F	3.61
R12H	2.5
R12G	2.97
R12W	2.88
R12E	3.81
R12I	3.48
R12K	2.95
R12Q	1.93
F10T	4.13
F10C	2.86
F10I	4.57
F10G	1.67
F10E	4.46
F10P	2.24
F10Q	3.4
F10H	3.27
F10V	3.1
F10L	3.4
F10A	3.58
F10K	2.44
S13W	2.3

Variant	protein stability index
S13T	3.14
S13N	2.56
S13Y	2.3
S13I	3.82
S13R	3.53
S13C	3.26
S13L	4.37
S13M	3.12
S13H	3.68
S13P	2
S13G	2.4
S13Q	2.61
S13V	2.11
S13A	2.29
S13K	1.4
S13F	2.29
S13D	3.34
